Results published in article doi:10.1101/2021.10.17.464694 (bioRxiv, 2021).

Target: K63-linked diubiquitin (UniProt P0CG48 1-76; P0CG48 1-76, K48R | K63R | D77 extension)
Assay: ITC

B1: full-length ASCC2 (natural protein)
chain: MPALPLDQLQITHKDPKTGKLRTSPALHPEQKADRYFVLYKPPPKDNIPALVEEYLERATFVANDLDWLLALPHDKFWCQVIFDETLQKCLDSYLRYVPRKFDEGVASAPEVVDMQKRLHRSVFLTFLRMSTHKESKDHFISPSAFGEILYNNFLFDIPKILDLCVLFGKGNSPLLQKMIGNIFTQQPSYYSDLDETLPTILQVFSNILQHCGLQGDGANTTPQKLEERGRLTPSDMPLLELKDIVLYLCDTCTTLWAFLDIFPLACQTFQKHDFCYRLASFYEAAIPEMESAIKKRRLEDSKLLGDLWQRLSHSRKKLMEIFHIILNQICLLPILESSCDNIQGFIEEFLQIFSSLLQEKRFLRDYDALFPVAEDISLLQQASSVLDETRTAYILQAVESAWEGVDRRKATDAKDPSVIEEPNGEPNGVTVTAEAVSQASSHPENSEEEECMGAAAAVGPAMCGVELDSLISQVKDLLPDLGEGFILACLEYYHYDPEQVINNILEERLAPTLSQLDRNLDREMKPDPTPLLTSRHNVFQNDEFDVFSRDSVDLSRVHKGKSTRKEENTRSLLNDKRAVAAQRQRYEQYSVVVEEVPLQPGESLPYHSVYYEDEYDDTYDGNQVGANDADSDDELISRRPFTIPQVLRTKVPREGQEEDDDDEEDDADEEAPKPDHFVQDPAVLREKAEARRMAFLAKKGYRHDSSTAVAGSPRGHGQSRETTQERRKKEANKATRANHNRRTMADRKRSKGMIPS
- stoichiometry N: 1 ASCC2 per K63Ub2
